B1: synthetic peptide having the amino acid sequence of SEQ ID NO:35 (peptide)
peptide: QARQLVSGLVQQQNNILRALEATQHAVQALVWGVKQLQARVLALERYIK
modifications: not checked

Columns and labels:
HIV infection of T cells = conditions: cited from earlier work
[1] = at concentrations of 5 μM or less; cited from earlier work
[2] = Oligomerization state by sedimentation equilibrium (analytical ultracentrifuge); format: physicochemical; conditions: in solution, 4° C.
Method: Oligomerization state was assessed by using methods standard in the art for performing sedimentation equilibrium experiments and for analysis of the resultant data. In that regard, sedimentation equilibrium experiments were performed over a concentration range of synthetic peptide (1 μM to […]) as follows. Briefly, six-channel cells (12 mm optical path length) were used with an An-60 Ti rotor operated at 13,500 rpm, 18,000 rpm, 22,000 rpm, and 35,000 rpm) in an analytical ultracentrifuge at 4° C. The cell radii were scanned using 0.001 cm steps with 10 averages/scan at 3 different wavelengths (235 nm, 240 nm, 280 nm). Data obtained with solutions containing synthetic peptide was analyzed using a single species model to determine a weight-averaged molecular weight (MW). Diagnostic plots of MW/MW0 vs. rpm/rpm0 and MW vs. radial concentration were used to test for sample homogeneity. When systemic residuals or a MW higher than monomer molecular weight indicated the presence of self-association, associative models were investigated. The suitability of a model (goodness of fit) was judged by the trends observed in the residuals.

[3] = Helicity by circular dichroism; format: physicochemical; conditions: at 10 μM, 25° C.
Method: (§1) Helicity was assessed by circular dichroism (“CD”) as follows. Briefly, CD spectra were obtained using a spectrometer equipped with a thermoelectric temperature controller. The spectra was obtained at 25° C. with 0.5 nanometer (nm) steps from 200 to 260 nm, with a 1.5 nm bandwith, and a typical averaging time of 4 seconds/step. After the cell/buffer blank was subtracted, spectra were smoothed using a third-order least-squares polynomial fit with a conservative window size to give random residuals. Raw ellipticity values were converted to mean residue ellipticity using standard methods, and plotted was the wavelength (from 200 to 260 nm) versus [θ]×10^−3 (degrees cm^2/dmol). Percent helicity values were then calculated using standard methods. Assessment of thermal stability was performed by monitoring the change in CD signal at 222 nm as temperature was raised in 2° C. steps, with 1 minute equilibration times. The thermal stability for each sample (e.g., synthetic peptide) was represented by the transition temperature (Tm) determined by the derivative method.

[4] = Thermal stability (Tm) by CD signal at 222 nm; format: physicochemical; conditions: at 10 μM
Method: as §1

[5] = test system: HR2 peptide (SEQ ID NO:33) derived from the HR2 region of HIV-1 gp41; assay: HR2 peptide binding, fluorescence polarization assay; conditions: ability to complex with HR2 peptide denoted as yes
Source text: These include a protein chip assay (using Biacore analysis) in which surface plasmon resonance is used to detect the binding, and kinetics thereof, between a synthetic peptide and an HR2 peptide; and a fluorescence polarization assay. In the fluorescence polarization assay, a detectable moiety comprising a fluorescent dye (e.g., rhodamine and/or fluorescein) was used to label HR2 peptide, and the assay was then allowed to proceed under sufficient conditions and for a sufficient period of time for labeled peptide to bind to HR1 peptide, or synthetic peptide (or trimer formed therefrom).

HIV IIIB = format: cell-based, HIV-1; conditions: for Antiviral activity against HIV IIIB IC50: 50% reduction in infectious virus titer; for Antiviral activity against HIV IIIB IC90: 90% reduction in infectious titer
[6] = biological target: HR2 peptide having the amino acid sequence of SEQ ID NO:33 (HIV-1); assay: surface plasmon resonance (Biacore protein chip assay)

Molecule	50% effective concentration (EC50), blocked infection of T cells (HIV infection of T cells)	Oligomerization state in solution [1]	Oligomerization [2]	Helicity [3]	Stability Tm [4]	HR2 peptide binding [5]	Antiviral activity against HIV IIIB IC50 (HIV IIIB)	Antiviral activity against HIV IIIB IC90 (HIV IIIB)	Kd [6]
DP107: HR1 peptide, also known as T-21, a synthetic peptide having the amino acid sequence of SEQ ID NO:2 (NNLLRAIEAQQHLLQLTVWGIKQLQARILAVERYLKDQ)	1 µg/mL	monomer/dimer/tetramer equilibrium							
SEQ ID NO: 38: Same as SEQ ID NO:32 except substitutions at 27, 34, 41, 48 and 23, 30, 44; Asp and Gln added to C-terminus (QARQLLSGIVQQQNNLLRAIEATQHAVQALVWGVKQLQARVLALERYIKDQ)			Trimer*	79%	90 °C	Yes	0.18 µg/mL	0.88 µg/mL	
SEQ ID NO: 39: Same as SEQ ID NO:32 except substitutions at 6, 20, 41, 48 and 9, 16, 44; Asp and Gln added to C-terminus (QARQLVSGLVQQQNNILRALEAQQHALQATVWGIKQLQARVLALERYIKDQ)			Trimer*	63%	68 °C	Yes	0.26 µg/mL	1.20 µg/mL	
B1									21.8 nM
